This note sets out measurements from US20200354474A1 (BROWN UNIVERSITY, published 2020).

The target in experiment [1] is T1, human Chi3l1 (chitinase 3-like-1) (human, UniProt P36222 22-383).
T1 construct: also called YKL-40; recombinant (r) human Chi3l1
As to the kind of experiment: Western blot and ELISA, denaturing and non-denaturing conditions.

For experiment [2], the target named is T2, mouse Chi3l1 (chitinase 3-like-1) (mouse, UniProt Q61362 30-389, limits assumed).
T2 construct: Recombinant mouse Chi3l1; also called murine Chi3l1; Chil1 (printed 'Chill')
Described as above.

T1 sequence (P36222 22-383 limits assumed): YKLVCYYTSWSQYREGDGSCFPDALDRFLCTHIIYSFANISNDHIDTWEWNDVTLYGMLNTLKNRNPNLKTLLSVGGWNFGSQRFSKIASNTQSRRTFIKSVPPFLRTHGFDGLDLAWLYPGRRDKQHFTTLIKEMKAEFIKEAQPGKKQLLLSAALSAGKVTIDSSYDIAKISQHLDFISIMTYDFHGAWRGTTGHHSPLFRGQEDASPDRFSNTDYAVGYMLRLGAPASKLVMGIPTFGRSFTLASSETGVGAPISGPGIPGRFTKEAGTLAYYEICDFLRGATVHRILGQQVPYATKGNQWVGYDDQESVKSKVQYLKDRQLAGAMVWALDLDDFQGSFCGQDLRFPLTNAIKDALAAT
T2 sequence (Q61362 30-389 limits assumed): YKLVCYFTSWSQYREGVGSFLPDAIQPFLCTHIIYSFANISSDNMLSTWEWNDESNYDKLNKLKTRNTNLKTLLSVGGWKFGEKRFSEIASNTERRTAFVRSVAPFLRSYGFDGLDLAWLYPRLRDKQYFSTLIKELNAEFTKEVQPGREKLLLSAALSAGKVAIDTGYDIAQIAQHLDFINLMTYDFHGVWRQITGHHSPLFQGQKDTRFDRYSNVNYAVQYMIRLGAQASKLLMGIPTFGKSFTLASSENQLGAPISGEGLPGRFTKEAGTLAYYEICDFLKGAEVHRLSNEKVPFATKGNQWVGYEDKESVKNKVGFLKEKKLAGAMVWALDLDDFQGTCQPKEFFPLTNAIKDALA

B1: FRG monoclonal antibody (antibody, V domains shown)
VH: QIQLVQSGPELKKPGETVKISCKASGYTFTNYGMNWVKQAPGKGLKWMGWINTYTGEPTYADDFKGRFAFSLETSASTAYLQINNLRNEDMSTYFCARLGYGKFYVMDYWGQGTSVTVSS
VL: DVVMTQTPLSLPVSLGDQASISCRSSQSLVHSNGNTYLHWYLQKPGQSPKLLIYKVSNRFSGVPDRFSGSGSGTDFTLKISRVEAEDLGVYFCSQSTHVTWTFGGGTKLEIK
notes: also called FRG mAb; anti-Chi3l1-FRG
Take B1: the binding result in experiment [1] and in experiment [2] was “binds” throughout.
